Reference: the supplement of paper PMC11246515
± gives the standard deviation of the averaged measurements.

Assay: total protein half-life in vivo (active degradation + dilution); higher = more stable protein
[1] = E. coli NCM3722 delta-clpP delta-lon delta-hslV, growth: N-lim chemostat, doubling time 6 h
[2] = E. coli NCM3722 delta-clpP, growth: N-lim chemostat, doubling time 6 h
[3] = E. coli NCM3722 delta-hslV, growth: N-lim chemostat, doubling time 6 h
[4] = E. coli NCM3722 delta-lon, growth: N-lim chemostat, doubling time 6 h
[5] = E. coli NCM3722 delta-smpB, growth: N-lim chemostat, doubling time 6 h
[6] = wild type E. coli NCM3722, growth: C-lim chemostat, doubling time 3 h
[7] = wild type E. coli NCM3722, growth: C-lim chemostat, doubling time 6 h
[8] = wild type E. coli NCM3722, growth: C-lim chemostat, doubling time 12 h
[9] = wild type E. coli NCM3722, growth: N-lim chemostat, doubling time 6 h
[10] = wild type E. coli NCM3722, growth: N-lim chemostat, doubling time 12 h
[11] = wild type E. coli NCM3722, growth: P-lim chemostat, doubling time 6 h
[12] = wild type E. coli NCM3722, growth: P-lim chemostat, doubling time 12 h

In the case of “MFQKVDAYAGDPILTLMERFKEDPRSDKVNLSIGLYYNEDGIIPQLQAVAEAEARLNAQPHGASLYLPMEGLNCYRHAIAPLLFGADHPVLKQQRVATIQTLGGSGALKVGADFLKRYFPESGVWVSDPTWENHVAIFAGAGFEVSTYPWYDEATNGVRFNDLLATLKTLPARSIVLLHPCCHNPTGADLTNDQWDAVIEILKARELIPFLDIAYQGFGAGMEEDAYAIRAIASAGLPALVSNSFSKIFSLYGERVGGLSVMCEDAEAAGRVLGQLKATVRRNYSSPPNFGAQVVAAVLNDEALKASWLAEVEEMRTRILAMRQELVKVLSTEMPERNFDYLLNQRGMFSYTGLSAAQVDRLREEFGVYLIASGRMCVAGLNTANVQRVAKAFAAVM”, the “total protein half-life in vivo” value [1] is reported as 4.07 ± 1.2 h, the “total protein half-life in vivo” value [2] is reported as 2.43 ± 0.047 h and the “total protein half-life in vivo” value [3] is reported as 2.54 ± 0.061 h. The “total protein half-life in vivo” value [4] was 3.01 ± 0.049 h, the “total protein half-life in vivo” value [5] was 2.676 ± 0.003 h and the “total protein half-life in vivo” value [6] was 3.06 ± 0.56 h. For the same sequence, the “total protein half-life in vivo” value [7] was 4.92 ± 0.29 h, the “total protein half-life in vivo” value [8] was 7.47 ± 0.87 h and the “total protein half-life in vivo” value [9] was 2.62 ± 0.058 h. For the same sequence, the “total protein half-life in vivo” value [10] was 3.66 ± 0.17 h, the “total protein half-life in vivo” value [11] was 5.28 ± 0.29 h and the “total protein half-life in vivo” value [12] was 9.773 ± 0.058 h.

For “MFRQLKKNLVATLIAAMTIGQVAPAFADSADTLPDMGTSAGSTLSIGQEMQMGDYYVRQLRGSAPLINDPLLTQYINSLGMRLVSHANSVKTPFHFFLINNDEINAFAFFGGNVVLHSALFRYSDNESQLASVMAHEISHVTQRHLARAMEDQQRSAPLTWVGALGSILLAMASPQAGMAALTGTLAGTRQGMISFTQQNEQEADRIGIQVLQRSGFDPQAMPTFLEKLLDQARYSSRPPEILLTHPLPESRLADARNRANQMRPMVVQSSEDFYLAKARTLGMYNSGRNQLTSDLLDEWAKGNVRQQRAAQYGRALQAMEANKYDEARKTLQPLLAAEPGNAWYLDLATDIDLGQNKANEAINRLKNARDLRTNPVLQLNLANAYLQGGQPQEAANILNRYTFNNKDDSNGWDLLAQAEAALNNRDQELAARAEGYALAGRLDQAISLLSSASSQVKLGSLQQARYDARIDQLRQLQERFKPYTKM”, the “total protein half-life in vivo” value [1] was 4.342 ± 0.022 h, the “total protein half-life in vivo” value [2] was 5.12 ± 1.1 h and the “total protein half-life in vivo” value [3] was 4.86 ± 0.098 h. For the same sequence, the “total protein half-life in vivo” value [4] was 4.52 ± 0.32 h, the “total protein half-life in vivo” value [5] was 4.35 ± 0.05 h and the “total protein half-life in vivo” value [6] was 2.7 ± 0.2 h. For the same sequence, the “total protein half-life in vivo” value [7] was 5.08 ± 0.19 h, the “total protein half-life in vivo” value [8] was 9.19 ± 1.1 h and the “total protein half-life in vivo” value [9] was 4.73 ± 0.033 h. The “total protein half-life in vivo” value [10] was 8.19 ± 1.1 h, the “total protein half-life in vivo” value [11] was 3.46 ± 0.47 h and the “total protein half-life in vivo” value [12] was 7.12 ± 1.7 h.

With “MFRRRGVTLTKALLTAVCMLAAPLTQAISVGNLTFSLPSETDFVSKRVVNNNKSARIYRIAISAIDSPGSSELRTRPVDGELLFAPRQLALQAGESEYFKFYYHGPRDNRERYYRVSFREVPTRNHTRRSPTGGVVSTEPVVVMDTILVVRPRQVQFKWSFDKVTGTVSNTGNTWFKLLIKPGCDSTEEEGDAWYLRPGDVVHQPELRQPGNHYLVYNDKFIKISDSCPAKPPSAD” the “total protein half-life in vivo” value [1] was 4.58 h, the “total protein half-life in vivo” value [2] was 4.57 ± 0.28 h and the “total protein half-life in vivo” value [3] was 3.66 h. For the same sequence, the “total protein half-life in vivo” value [4] was 4.37 h, the “total protein half-life in vivo” value [5] was 4.89 ± 0.82 h and the “total protein half-life in vivo” value [6] was 2.51 ± 0.53 h. For the same sequence, the “total protein half-life in vivo” value [7] was 3.37 h, the “total protein half-life in vivo” value [8] was 9.74 h and the “total protein half-life in vivo” value [9] was 3.84 h. For the same sequence, the “total protein half-life in vivo” value [10] was 6.84 h and the “total protein half-life in vivo” value [12] was 9.993 ± 0.096 h.

For “MFSEVMRYILDLGPTVMLPIVIIIFSKILGMKAGDCFKAGLHIGIGFVGIGLVIGLMLDSIGPAAKAMAENFDLNLHVVDVGWPGSSPMTWASQIALVAIPIAILVNVAMLLTRMTRVVNVDIWNIWHMTFTGALLHLATGSWMIGMAGVVIHAAFVYKLGDWFARDTRNFFELEGIAIPHGTSAYMGPIAVLVDAIIEKIPGVNRIKFSADDIQRKFGPFGEPVTVGFVMGLIIGILAGYDVKGVLQLAVKTAAVMLLMPRVIKPIMDGLTPIAKQARSRLQAKFGGQEFLIGLDPALLLGHTAVVSASLIFIPLTILIAVCVPGNQVLPFGDLATIGFFVAMAVAVHRGNLFRTLISGVIIMSITLWIATQTIGLHTQLAANAGALKAGGMVASMDQGGSPITWLLIQVFSPQNIPGFIIIGAIYLTGIFMTWRRARGFIKQEKVVLAE”, the “total protein half-life in vivo” value [1] was 6.09 h.

With “MFSGLLIILVPLIVGYLIPLRQQAALKVINQLLSWMVYLILFFMGISLAFLDNLASNLLAILHYSAVSITVILLCNIAALMWLERGLPWRNHHQQEKLPSRIAMALESLKLCGVVVIGFAIGLSGLAFLQHATEASEYTLILLLFLVGIQLRNNGMTLKQIVLNRRGMIVAVVVVVSSLIGGLINAFILDLPINTALAMASGFGWYSLSGILLTESFGPVIGSAAFFNDLARELIAIMLIPGLIRRSRSTALGLCGATSMDFTLPVLQRTGGLDMVPAAIVHGFILSLLVPILIAFFSA” the “total protein half-life in vivo” value [7] was 3.12 h, the “total protein half-life in vivo” value [10] was 8.87 h and the “total protein half-life in vivo” value [12] was 8.67 ± 0.3 h.

With “MFSIKPGPRNLPIDNPTLLSWNITDGDLNSKLNTLEYLNCITNIINSCGVYPQGLKDREIISTFHAEKVINDLLKNDYKISLSPDTTYRELNKAAQRSITAPDRIGERKTWVYQRDTMIERGDNSGVYQYGRAEHFTHIISDKPSPKDKYVAYAINIPDYELAADVYNINVTSPSGQQETFKILINLEHLRQTLERKSLTAVQKSQCEIITPKKPGEAILHAFNATYQQIRENMSEFARCHYGYIQIPPVTTFRADGPETPEEEKGYWFHAYQPEDLCTIHNPMGDLQDFIALVKDAKKFGIDIIPDYTFNFMGIGGSGKNDLDYPSADIRAKISKDIEGGIPGYWQGQVLIPFIKDPVTKERKQIHPEDIHLTAKDFEASKDNISKDEWENLHALKEKRLNGMPKTTPKSDQVIMLQNQYVREMRKYGVRGLRYDAAKHSKHEQIERSITPPLKNYNERLHNTNLFNPKYHKKAVMNYMEYLVTCQLDEQQMSSLLYERDDLSAIDFSLLMKTIKAFSFGGDLQTLASKPGSTISSIPSERRILININHDFPNNGNLFNDFLFNHQQDEQLAMAYIAALPFSRPLVYWDGQVLKSTTEIKNYDGSTRVGGEAWLNKGCSTYQQLYNEFHALYIDKAGIWSAFEGVSATKNVLAFSRGDSVNINHSPHDGLVIINKGNEEVEGTWPNKLQPGIYKNMGSNSVNIIINNTRKIIPPGKVFTLRGGTLNINIPGRSALLLGKTGEPPNYLYL” the “total protein half-life in vivo” value [1] was 4.26 ± 0.095 h, the “total protein half-life in vivo” value [2] was 3.78 h and the “total protein half-life in vivo” value [3] was 3.6 ± 0.55 h. The “total protein half-life in vivo” value [4] was 3.86 ± 0.15 h, the “total protein half-life in vivo” value [5] was 3.93 ± 0.2 h and the “total protein half-life in vivo” value [6] was 3.14 ± 0.21 h. For the same sequence, the “total protein half-life in vivo” value [7] was 4.93 h, the “total protein half-life in vivo” value [8] was 9.02 h and the “total protein half-life in vivo” value [9] was 3.51 h. For the same sequence, the “total protein half-life in vivo” value [10] was 5.65 h, the “total protein half-life in vivo” value [11] was 4.45 h and the “total protein half-life in vivo” value [12] was 11.3 ± 3.7 h.

For “MFTATEAVPVAKVVAGNKRYPGVVALDNVNFTLNKGEVRALLGKNGAGKSTLIRMLTGSERPDSGDIWIGETRLEGDEATLTRRAAELGVRAVYQELSLVEGLTVAENLCLGQWPRRNGMIDYLQMAQDAQRCLQALGVDVSPEQLVSTLSPAQKQLVEIARVMKGEPRVVILDEPTSSLASAEVELVISAVKKMSALGVAVIYVSHRMEEIRRIASCATVMRDGQVAGDVMLENTSTHHIVSLMLGRDHVDIAPVAPQEIVDQAVLEVRALRHKPKLEDISFTLRRGEVLGIAGLLGAGRSELLKAIVGLEEYEQGEIVINGEKITRPDYGDMLKRGIGYTPENRKEAGIIPWLGVDENTVLTNRQKISANGVLQWSTIRRLTEEVMQRMTVKAASSETPIGTLSGGNQQKVVIGRWVYAASQILLLDEPTRGVDIEAKQQIYRIVRELAAEGKSVVFISSEVEELPLVCDRILLLQHGTFSQEFHAPVNVDELMSAILSVH”, the “total protein half-life in vivo” value [8] was 7.2 ± 4.9 h and the “total protein half-life in vivo” value [11] was 4.92 h.

With “MFTGIVQGTAKLVSIDEKPNFRTHVVELPDHMLDGLETGASVAHNGCCLTVTEINGNHVSFDLMKETLRITNLGDLKVGDWVNVERAAKFSDEIGGHLMSGHIMTTAEVAKILTSENNRQIWFKVQDSQLMKYILYKGFIGIDGISLTVGEVTPTRFCVHLIPETLERTTLGKKKLGARVNIEIDPQTQAVVDTVERVLAARENAMNQPGTEA [P0AFU8]” the “total protein half-life in vivo” value [1] was 4.8 ± 0.2 h, the “total protein half-life in vivo” value [2] was 4.397 ± 0.01 h and the “total protein half-life in vivo” value [3] was 4.123 ± 0.0054 h. The “total protein half-life in vivo” value [4] was 4.774 ± 0.047 h, the “total protein half-life in vivo” value [5] was 4.561 ± 0.029 h and the “total protein half-life in vivo” value [6] was 3.06 ± 0.28 h. The “total protein half-life in vivo” value [7] was 5.3745 ± 0.003 h, the “total protein half-life in vivo” value [8] was 12.1 ± 4.4 h and the “total protein half-life in vivo” value [9] was 4.25 ± 0.16 h. For the same sequence, the “total protein half-life in vivo” value [10] was 6.8 ± 0.16 h, the “total protein half-life in vivo” value [11] was 5.96 ± 0.6 h and the “total protein half-life in vivo” value [12] was 11.6 ± 0.24 h.
